{"source": "patent US8586530B2", "about": "“Modulation of inhibition of ferrochelatase by N-methyl protoporphyrin” (University of South Florida, priority 2006, dated 2013)", "molecules": {"B1": {"name": "P255R: murine ferrochelatase variant in which P255 was replaced with arginine (protein, UniProt P22315 54-422, looked up, variant P255R)", "Ferrochelatase, mitochondrial": "TTKPQAQPERRKPKTGILMLNMGGPETLGEVQDFLQRLFLDRDLMTLPIQNKLAPFIAKRRTPKIQEQYRRIGGGSPIKMWTSKQGEGMVKLLDELSPATAPHKYYIGFRYVHPLTEEAIEEMERDGLERAIAFTQYPQYSCSTTGSSLNAIYRYYNEVGQKPTMKWSTIDRWPTHPLLIQCFADHILKELNHFPEEKRSEVVILFSAHSLPMSVVNRGDPYPQEVGATVHKVMEKLGYPNPYRLVWQSKVGPVRWLGPQTDEAIKGLCERGRKNILLVPIAFTSDHIETLYELDIEYSQVLAQKCGAENIRRAESLNGNPLFSKALADLVHSHIQSNKLCSTQLSLNCPLCVNPVCRKTKSFFTSQQL"}, "B2": {"name": "wild-type ferrochelatase: recombinant wild-type, murine ferrochelatase with N-terminal penta-histidine tag (protein, UniProt P22315 54-422, looked up)", "Ferrochelatase, mitochondrial": "B1 Ferrochelatase, mitochondrial with R255P"}, "B3": {"name": "P255G: murine ferrochelatase variant in which P255 was replaced with glycine (protein, UniProt P22315 54-422, looked up, variant P255G)", "Ferrochelatase, mitochondrial": "B1 Ferrochelatase, mitochondrial with R255G"}}, "note": "Substitutions are numbered along the chain they refer to. Names and notes keep the numbering of the source.", "data": [{"tested_on": "not listed separately", "experiment": "Steady-state kinetics of ferrochelatase and P255 variants", "format": "biochemical, murine", "conditions": "not given", "from_the_text": "(§1) One possible explanation for these findings is that the mechanism of interaction between the enzyme and the protoporphyrin substrate differs from that for inhibitor binding. It is conceivable that the active site of ferrochelatase is optimized for interaction with the protoporphyrin substrate and retains a certain degree of plasticity towards this end. Possibly, this facilitates the induction of porphyrin deformation in the protein matrix, and in so doing, ensures the catalytic reaction to proceed. In contrast, the constraints of the active site towards NMPP are presumably more stringent than towards the protoporphyrin substrate and any alterations of the active site affect the selectivity towards NMPP. Another possible explanation, and not necessarily mutually exclusive from the former, is that mutations introduced in the active site (e.g., at the P255 position) cause an alteration of the regiospecificity of ferrochelatase, such that the mutated active site can accommodate either a regioisomer or a combination of regioisomers of NMPP different from those of the wild-type active site. It is worth noting that 1) the commercially available NMPP used in this study consists of a racemic mixture of the eight potential isomers and 2) only one NMPP isomer was identified in the crystal structure of the B. subtillis ferrochelatase.\n(§2) Protein Purification. Wild-type, murine ferrochelatase and variants were over-expressed, under the control of the E. coli alkaline phosphatase promoter phoA, in BL21(DE3) cells. The purification of the recombinant proteins bearing a N-terminal penta-histidine tag, assessment of the purity by sodium dodecyl sulfate-polyacrylamide gel electrophoresis and determination of protein concentration and enzymatic activity were as described previously (Shi and Ferreira 2004).", "units": {"kcat": "s⁻¹"}, "values": [{"molecule": "B1", "kcat": "0.13 ± 0.013"}, {"molecule": "B2", "kcat": "0.0683 ± 0.005"}, {"molecule": "B3", "kcat": "0.0983 ± 0.0233"}]}, {"tested_on": "not listed separately", "experiment": "Steady-state kinetics of ferrochelatase and P255 variants", "format": "biochemical, murine", "conditions": "protoporphyrin, read-out: Km^PPIX", "from_the_text": "as §1, §2", "units": {"Km": "µM"}, "values": [{"molecule": "B1", "Km": "2.65 ± 0.44"}, {"molecule": "B2", "Km": "1.4 ± 0.2"}, {"molecule": "B3", "Km": "2.51 ± 0.8"}]}, {"tested_on": "E. coli Δvis cells", "experiment": "Genetic selection in E. coli: growth of Δvis transformants on NMPP-containing plates", "format": "cell-based, Escherichia coli", "conditions": "medium containing more than 20 μM NMPP", "procedure": "To isolate Escherichia coli Δvis transformants harboring loop variants more tolerant to NMPP than wild-type ferrochelatase, 33 variants isolated from a library of 214 functional, ferrochelatase clones were plated on LB-ampicilin medium containing 0.2 μM, 2 μM or 20 μM NMPP. E. coli Δvis cells can only grow when hemin is added to the medium or when the cells are transformed with an active ferrochelatase expression plasmid. Transformants harboring a subset of the functional loop variants including K250N, V251L, P255R, P255G, K250M/V251L/W256Y and Q248P/S249G/250P/G252W were grown onto LB-ampicilin plates with increasing concentrations of NMPP. […] Based on this observation, the P255 variants were selected for further characterization.\nGenetic Selection in E. coli. E. coli Δvis cells harboring plasmids encoding active, ferrochelatase variants isolated from a random sequence library of the loop motif were grown 16-18 h at 37° C. in LB agar medium containing 50 μg/mL of ampicillin and varying concentrations of NMPP. For the preparation of the NMPP-containing LB-ampicilin agar plates, a 2 mM stock solution of NMPP was made by dissolving NMPP in 20 mM NH4OH containing 2% Tween-20. The solution was filter-sterilized and kept at 4° C. The stock solution was diluted 100-, 1000- and 10000-fold to prepare LB-ampicilin plates containing 20 μM, 2 μM and 0.2 μM NMPP. Δvis cells transformed with wild-type ferrochelatase and functional variants were grown in LB medium containing 50 μg/mL ampicilin and 0.4% (w/v) glucose at 37° C., overnight, with shaking at 220 RPM. Each of the overnight cultures was diluted 20-fold into fresh medium and grown at 37° C. for ˜1 hr until OD600 reached ˜0.4-0.5. Subsequently, these cultures were diluted with LB medium by 10^6 and 100 μl aliquots of the diluted stock were spread on LB-ampicilin agar plates and LB-ampicilin agar plates containing NMPP at 0.2 μM, 2 μM and 20 μM, respectively. The plates were incubated at 37° C. for 16 hr, and the colonies on each plate were counted. […]", "values": [{"molecule": "B1", "colony formation of Δvis cells expressing the enzyme": "could form colonies"}, {"molecule": "B2", "colony formation of Δvis cells expressing the enzyme": "could not"}, {"molecule": "B3", "colony formation of Δvis cells expressing the enzyme": "could form colonies"}]}]}
